The record followed here is patent US20200397860A1, “SLIT AND BONE GROWTH MODULATION” (Cornell University, priority 2018, published 2020).

Experiment [1] has as its system murine ovariectomy (OVX) model of postmenopausal osteoporosis. The experiment can be described thus: Ovariectomy (OVX) induced bone loss, prophylactic model. Type of experiment: in vivo, mouse. The method, then: (§1) Micro-CT (μCT) analysis was conducted on a Scanco Medical μCT 35 system at the Citigroup Biomedical Imaging Core using the previously described parameters. (Shim et al. 2013). μCT analysis was performed by an investigator blinded to the genotypes of the animals under analysis.
For histomorphometry, mice were injected with calcein (25 mg/kg, Sigma), and undecalcified sections of the lumbar vertebrae were stained using von Kossa and TRAP as described by Fukuda et al. (2013). Static and dynamic histomorphometric analysis was performed with using the Osteomeasure Analysis System (Osteometrics) following standard nomenclature as described (Dempster et al. 2013). Bone volume/total volume (BV/TV), bone formation rate/bone surface (BFR/BS, μm^3 […] yr^−1), mineral apposition rate (MM, um Day^−1), osteoblast surface/bone surface (Ob.S/BS, %) and osteoclast number/bone perimeter (No. OC/Bpm) were analyzed.
For the prophylactic model, 12-week-old female mice (JAX) were anesthetized and bilaterally ovariectomized or sham operated. Ovariectomized mice were given twice weekly intravenous injections of 1 mg per kg body weight of SLITS or vehicle or daily subcutaneous (sc) injections of 80 ug/kg PTH (1-34) for 6 weeks starting 2 weeks after ovariectomy. […] All mice were then randomly assigned to one of four groups: Sham, OVX+vehicle, OVX+SLITS and OVX+PTH. Three days after the last injection, all of the mice were euthanized and subjected to bone analysis as described earlier.

Experiment [2] concerns open femoral midshaft fracture. The experiment in a line: Open femoral midshaft fracture model, systemic IV SLIT3. Type of experiment: in vivo, mouse. The method, then:
as §1
For histological analysis, hindlimbs were dissected from the mice or human callus, fixed in 10% neutral buffered formalin for 24-48 hours, and decalcified by daily changes of 15% tetrasodium EDTA for 2 weeks. Tissues were dehydrated by passage through an ethanol series, cleared twice in xylene, embedded in paraffin, and sectioned at 7 μm thickness. Decalcified sections were stained with hematoxylin and eosin (H&E). We incubated the slides with primary antibody to mouse EMCN (sc-65495, Santa Cruz, 1:200) and human Slit3 (ab198726, Abcam 1:50) at 37° C. for 2 h and subsequently used a horseradish peroxidase-streptavidin detection system (Dako) to detect the immunoreactivity. The number and volume of positively stained vessels was measured in four random visual fields of callus in 3 sequential sections per mouse in each group.
All surgical procedures were performed under isoflurane (1-4%) anesthesia via nosecone. Surgical sites were sterilized using a betadine/iodide/isopropanol prep after hair removal by a clipper with a #40 blade and depilatory cream (Nair). After surgery, the visceral lining or muscle was sutured with absorbable Ethicon vicryl sutures (VWR, Cat #95057-014) prior to closing the skin with wound clips that were then removed 2 weeks post-operatively. Animals received intraperitoneal Buprenex (0.5 mg/kg) and oral Meloxicam (2.0 mg/kg) as analgesia prior to surgery and once every 24 hours post-surgery for 3 days. All surgical procedures are approved by the IACUC of Weill Cornell Medical College (Protocol #2012-0005).
Bone fracture was done following previously described protocols with modifications (Bradaschia-Correa et al. 2017). In brief, after anesthesia and surgical site sterilization, an incision above the right anterolateral femur was made. The femur and patella were then exposed, and a 27-gauge syringe needle was inserted parallel with the long axis of the femur through the patellar groove into the marrow cavity. The needle was then removed, and a single cut was made in the middle of the femoral diaphysis using a dremel saw with a diamond thin cutting wheel (VWR, Cat #100230-724). A blunt 25-gauge needle was then inserted into the marrow space through the hole made in the patella to stabilize the fracture. The needle was then trimmed to avoid it from projecting into the patella-femoral joint space. Muscle was then placed over the osteotomy site and stitched with absorbable sutures prior to closing the skin with wound clips.
Alternatively, the gelatin sponge was manually soaked with SLITS (300 ug/ml in PBS) or vehicle for 1 hour on ice and immediately placed to the surgical fracture area. All animals were euthanized by CO2 at time points indicated.
All bones were tested to failure using four-point bending on a precision electromagnetic-based load frame (EnduraTEC ELF 3200, Bose Corporation, Minnetonka, MC). Femurs were placed with the posterior surface on the lower supports, spaced 9.9 mm apart. The upper supports were spaced 3.3 ram. Load was applied at a rate of 0.1 mm/s until failure occurred. The failure load (N) and bending stiffness […] within the elastic range were calculated from the force-displacement curves and the four-point dimensions.

Where [3] appears, read: treatment initiated two weeks after OVX.
[4] abbreviates: IV twice weekly, 21 days after fracture.
Where [5] appears, read: biomechanical testing, 21 days after fracture.

Entries after “also recorded” stand apart in the source; their conditions may differ.

B1: SLIT3: SLIT3 recombinant protein (R&D); secreted ligand of ROBO receptors (protein, UniProt O75094 34-1523, looked up)
Slit homolog 3 protein: CPTKCTCSAASVDCHGLGLRAVPRGIPRNAERLDLDRNNITRITKMDFAGLKNLRVLHLEDNQVSVIERGAFQDLKQLERLRLNKNKLQVLPELLFQSTPKLTRLDLSENQIQGIPRKAFRGITDVKNLQLDNNHISCIEDGAFRALRDLEILTLNNNNISRILVTSFNHMPKIRTLRLHSNHLYCDCHLAWLSDWLRQRRTVGQFTLCMAPVHLRGFNVADVQKKEYVCPAPHSEPPSCNANSISCPSPCTCSNNIVDCRGKGLMEIPANLPEGIVEIRLEQNSIKAIPAGAFTQYKKLKRIDISKNQISDIAPDAFQGLKSLTSLVLYGNKITEIVKGLFDGLVSLQLLLLNANKINCLRVNTFQDLQNLNLLSLYDNKLQTISKGLFAPLQSIQTLHLAQNPFVCDCHLKWLADYLQDNPIETSGARCSSPRRLANKRISQIKSKKFRCSGSEDYRSRFSSECFMDLVCPEKCRCEGTIVDCSNQKLVRIPSHLPEYVTDLRLNDNEVSVLEATGIFKKLPNLRKINLSNNKIKEVREGAFDGAASVQELMLTGNQLETVHGRVFRGLSGLKTLMLRSNLIGCVSNDTFAGLSSVRLLSLYDNRITTITPGAFTTLVSLSTINLLSNPFNCNCHLAWLGKWLRKRRIVSGNPRCQKPFFLKEIPIQDVAIQDFTCDGNEESSCQLSPRCPEQCTCMETVVRCSNKGLRALPRGMPKDVTELYLEGNHLTAVPRELSALRHLTLIDLSNNSISMLTNYTFSNMSHLSTLILSYNRLRCIPVHAFNGLRSLRVLTLHGNDISSVPEGSFNDLTSLSHLALGTNPLHCDCSLRWLSEWVKAGYKEPGIARCSSPEPMADRLLLTTPTHRFQCKGPVDINIVAKCNACLSSPCKNNGTCTQDPVELYRCACPYSYKGKDCTVPINTCIQNPCQHGGTCHLSDSHKDGFSCSCPLGFEGQRCEINPDDCEDNDCENNATCVDGINNYVCICPPNYTGELCDEVIDHCVPELNLCQHEAKCIPLDKGFSCECVPGYSGKLCETDNDDCVAHKCRHGAQCVDTINGYTCTCPQGFSGPFCEHPPPMVLLQTSPCDQYECQNGAQCIVVQQEPTCRCPPGFAGPRCEKLITVNFVGKDSYVELASAKVRPQANISLQVATDKDNGILLYKGDNDPLALELYQGHVRLVYDSLSSPPTTVYSVETVNDGQFHSVELVTLNQTLNLVVDKGTPKSLGKLQKQPAVGINSPLYLGGIPTSTGLSALRQGTDRPLGGFHGCIHEVRINNELQDFKALPPQSLGVSPGCKSCTVCKHGLCRSVEKDSVVCECRPGWTGPLCDQEARDPCLGHRCHHGKCVATGTSYMCKCAEGYGGDLCDNKNDSANACSAFKCHHGQCHISDQGEPYCLCQPGFSGEHCQQENPCLGQVVREVIRRQKGYASCATASKVPIMECRGGCGPQCCQPTRSKRRKYVFQCTDGSSFVEEVERHLECGCLACS
Take B1: in experiment [1] (IV twice weekly initiated two weeks after OVX), the “OVX-induced bone loss (micro-CT)” value is “significantly countered OVX-induced bone loss; also recorded: comparable to the effects of PTH treatment; also recorded: preventive effects”. In experiment [1] (L3 vertebrae), the “endosteal CD31hiEMCNhi endothelium after OVX” value is reported as “reversed the attenuation” and the endosteal bone formation entry is recorded as “rescued”. Also, in experiment [1] (treatment for six weeks in vivo), the “amounts of CD31hiEMCNhi vasculature in vivo” value was “increase amounts”. Moreover, in experiment [1] (setting [3]), the cortical thickness result was “increased” and the “trabecular BV/TV” value is listed as “increased”. The “bone fracture healing (μCT and histological analysis)” value in experiment [2] (5-week-old male mice, IV twice weekly, 21 days) is recorded as “enhancement of bone fracture healing; also recorded: enhances bone-fracture healing”. In experiment [2] (setting [4]), the “bone volume in the callus area relative to controls” value is around 2 fold and the “vascularization of fracture area including CD31hiEMCNhi endothelium” value is “increased”. In experiment [2] (setting [5]), the “maximum load sustained by the fracture callus” value is given as “significantly enhanced” and the “stiffness of the fracture callus” value is recorded as “significantly enhanced”.
